Reference: the nanobody polyreactivity screen of Harvey et al. (2022)

Assay: yeast display, Sf9 membrane polyspecificity reagent, FACS + sequencing; frameworks hold sequencing errors
Method in brief: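 Using colony PCR, genes from sorted yeast display clones were amplified, then sequenced on MiSeq at 2 × 250 and filtered by CDR length. The clones had been stained with 10% biotinylated, detergent-solubilized Sf9 membrane reagent for 1 hour at 4 °C and sorted by FACS into low and high (top ~1%) gates on anti-HA and streptavidin fluorescence. Polyreactivity labels come from the gate of origin.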

QVQLVESGGGLVQAGGSLRLSCAASGRTFTNYAMGWYRQAPGKERELVASISNAGSTNYADSVKGRFTISRDNAKNTVYLQMNSLNPEDTAVYYCAADFFAGTQRTFDYWGQGTQVTVSS
polyreactivity (PSR sort gate): high polyreactivity

QVQLVESAGGLVQAGGSLLLSCAASGFTFYPYAMGWYRQAPGKERELVAAISNGDSTHYADSVKGRFTISRDNAKNTVYLQMTSQKPEDTAVYYCAAPRYPYRCFYSDYDYWGQGTQVTVSS
polyreactivity (PSR sort gate): low polyreactivity

QVQLVESGGGLVQAGGILRLSCAASGSIIVYNSMVCYRQAPGKERELVARITGRGGRTYYADSVKGRFTISRDNAKNTVYLQMNSLKPEDTAVYYCAKYGYWGQGTQVTVSS
polyreactivity (PSR sort gate): high polyreactivity

QGQLVESGGGLVQAGGSLRLSCAASGGIFLGNAMGWYRQAPGKERELVASITRGGDTSYADSVKGRFTISRDNAKNTVYLQMNCLKPEDTAVYYCNADYYSVVEYDYWGQGTQLTVSS
polyreactivity (PSR sort gate): low polyreactivity

QVQLVESGGGLVQAGGSLRLSCAASGRIFGPYAMGWYRQAPGKEREWVAAISYSGGRTRYADSVKGRFTISRDNAKNTVYLQMNSLKPEDTAVYYCNRVIPTQSLRDYYWGQGTQVTVSS
polyreactivity (PSR sort gate): high polyreactivity

QVQLQESGGGLVQAGGSLRRSCAASGSIFYHWAMGWYRQTPGKERELVASITSGGNTNYADSVKGRFTISRDNAKNTVYLPMDRLKPEDTAVYYCAADGYYGAWDLEYYYWGQGTQVTVSS
polyreactivity (PSR sort gate): low polyreactivity

QVQLVESGGGLVQAGGSLRLSCAASGSIFFYYAMGWYRQAPGKERELVASISTDGSTYADSVKGRFTISRDNAKNTVYLQMNSLKPEDTAVYYCATRGAEAERFASYDFDYWGQGTQVTVSS
polyreactivity (PSR sort gate): low polyreactivity

QVQLVESGGGLVQAGGSLRLSCAASGSIFYYYAMGWYRQAPGKEREFVAAIRESGGSTYYADSVKGRFTISRDNAKNTVYLQMNSLKPEDTAVYYCAVRRPRRNYNYPYDYCGQGTQVTVSS
polyreactivity (PSR sort gate): low polyreactivity

QVQLVESGGGLVQAGGSLRLSCAASGRIFKVYAMGWYRQAPGKERELVATISRGGSTYYADSVKGRFTISRDNAKNTVYLQMNSLKPEDTAVYYCAKQRERYYWFGAWSYDYWGQGTQVTVSS
polyreactivity (PSR sort gate): low polyreactivity

QVQLQERGGGLVQAGGSLRLTCAASGTISDSGLMGWYRQAPGKERELVAGISSGGITNYADSVKGRFTISRDNANNTVYLQMNSLKPEDNAVFWGQGSQVTVSS
polyreactivity (PSR sort gate): low polyreactivity

QVQLVESGGRLVQAGGSLRLSCAASGSTIVRNGMGWYRQAPGKERELVAAITRGGSTYYADSVKGRFTISRDNAKNTVYLQMNSLKPEDTAVYYCATYDPARSTQGYDYWGQGTQVTVSS
polyreactivity (PSR sort gate): high polyreactivity

QVQLVESGGGLVQAGGSLRISCAASGITLYFYAMGWYRQAPGKERELVAGISGSVGSTHYADSVKGRFSISRDNAKNTVYLQMNSLKPEDTAVYYCAARALTWSRVPRYNYWGQGTQVTVSS
polyreactivity (PSR sort gate): high polyreactivity

QVQLVESGGGLVQAGGSLRLSCAASGSTFPPYAMGWYRQAPGKERELVADITRRGASTYYADSVKGRFTISRDNAKNTDYLQMNSLKPEDTAVYYFAAGPYVGQRWYRYNYDYWGQGTQVTVSS
polyreactivity (PSR sort gate): high polyreactivity

QVQLVESGGGLVQAGGSLRLSCAASGFIFVTNAMGWYRQAPGKERELVAAINWSGGRTYYADSVKGRFTISRDNAKNTVYLQMNSLKPEDTAVYYCAADPYARLGEYGYCGQGTQVTVSS
polyreactivity (PSR sort gate): low polyreactivity

QVQLVESGGGLVQAGGSLRLSCAASGRTFWSYAMGWYRQAPGKERELVATINDSDGSTYADSVKGRFTISRDNAKNTVYLQMNSLKPEDTAVYYCNAQTRAGYYFGYGYWGQGTQVTVSS
polyreactivity (PSR sort gate): low polyreactivity

QVQRVESGGGIVQAGGTLRLSCAASLRIKDNVMGRYIQAHGKERELVAAITRSAGRTYYADSVKGRFTISRDNAKYTVYLQKNSLKPEDTALYYCAAHAERYGYEYWGQGTQVTVSS
polyreactivity (PSR sort gate): low polyreactivity

QVQLVESGGGLVQAGGSLRLSCAASGSIFVKYAMGWYRQAPGKERELVAAISGSGGSTYYADSVKGRFTISRDNAKNTVYLQMNSLKPEDTAVYYCAAAYHGRHYYWGQGTQVTVSS
polyreactivity (PSR sort gate): high polyreactivity
